Results published in EP4574844A1 (Numab Therapeutics AG, dated 2025).

B1: PRO5056 (antibody, human IgG1, kappa)
chain: DVQMTQSPSSLSASVGDRVTITCQASQSISSWVSWYQQKPGKPPKLLIYRGGYLESGVPSRFSASGSGTDFTLTISSLQPEDFATYYCQSTDSSTYGGAFGCGTKVTVLGGGGGSGGGGSGGGGSGGGGSQQVVESGGGLVQPGGSLRLSCAVSGIDLNSYAMTWVRQAPGKCLEWIGYIGSASSTYYASWASGRFTISKDNSKNTVYLQMNSLRAEDSAVYFCARGSTYINIWGQGTLVKVSSEPKSSDKTHTCPPCPAPELLGGPSVFLFPPKPKDTLMISRTPEVTCVVVDVSHEDPEVKFNWYVDGVEVHNAKTKPREEQYNSTYRVVSVLTVLHQDWLNGKEYKCKVSNKALPAPIEKTISKAKGQPREPQVYTLPPCREEMTKNQVSLSCAVKGFYPSDIAVEWESNGQPENNYKTTPPVLDSDGSFFLVSKLTVDKSRWQQGNVFSCSVMHEALHNHYTQKSLSLSPGKGGGGSGGGGSDIQMTQSPSSLSASVGDRVTITCQSSESVYSNNQLSWYQQKPGQPPKLLIYDASDLASGVPSRFSGSGSGTDFTLTISSLQPEDFATYYCAGGFSSSSDTAFGCGTKLTVLGGGGGSGGGGSGGGGSGGGGSEVQLVESGGGLVQPGGSLRLSCAASGFSLSSNAMGWVRQAPGKCLEYIGIISVGGFTYYASWAKGRFTISRDNSKNTVYLQMNSLRAEDSATYFCARDRHGGDSSGAFYLWGQGTLVKVSS
heavy: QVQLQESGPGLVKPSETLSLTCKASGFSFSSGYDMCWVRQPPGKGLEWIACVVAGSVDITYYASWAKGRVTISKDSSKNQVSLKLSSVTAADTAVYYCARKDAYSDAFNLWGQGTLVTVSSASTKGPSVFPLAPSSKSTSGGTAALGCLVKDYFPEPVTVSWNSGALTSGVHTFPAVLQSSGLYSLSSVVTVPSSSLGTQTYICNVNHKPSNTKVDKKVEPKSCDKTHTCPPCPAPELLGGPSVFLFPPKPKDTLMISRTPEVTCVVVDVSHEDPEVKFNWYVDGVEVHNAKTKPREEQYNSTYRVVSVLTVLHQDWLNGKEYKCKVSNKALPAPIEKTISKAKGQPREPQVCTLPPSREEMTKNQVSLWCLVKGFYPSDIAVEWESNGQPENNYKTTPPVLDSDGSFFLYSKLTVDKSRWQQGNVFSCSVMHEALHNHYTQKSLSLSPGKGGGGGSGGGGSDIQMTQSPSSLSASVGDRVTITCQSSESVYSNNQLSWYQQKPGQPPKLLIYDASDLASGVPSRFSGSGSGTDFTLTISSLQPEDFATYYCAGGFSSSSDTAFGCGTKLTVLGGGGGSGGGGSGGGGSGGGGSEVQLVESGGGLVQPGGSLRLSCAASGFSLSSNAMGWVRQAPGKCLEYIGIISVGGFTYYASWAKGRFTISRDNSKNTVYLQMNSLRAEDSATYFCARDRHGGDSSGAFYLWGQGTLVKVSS
light: DIQMTQSPSSLSASVGDRVTITCQASQSINDYLAWYQQKPGKAPKLLIYKGGTLASGVPSRFSGSGSGTDFTLTISSLQPEDFATYYCQQGYIITDIDNVFGQGTKVEIKRTVAAPSVFIFPPSDEQLKSGTASVVCLLNNFYPREAKVQWKVDNALQSGNSQESVTEQDSKDSTYSLSSTLTLSKADYEKHKVYACEVTHQGLSSPVTKSFNRGEC
notes: anti-PDL1 x CD47 x (hSA dummy domain); also called PRO5055 with dummy domain for LILRB2-BD
B2: PRO4688 (antibody, human IgG1, kappa)
chain: B1 chain
heavy: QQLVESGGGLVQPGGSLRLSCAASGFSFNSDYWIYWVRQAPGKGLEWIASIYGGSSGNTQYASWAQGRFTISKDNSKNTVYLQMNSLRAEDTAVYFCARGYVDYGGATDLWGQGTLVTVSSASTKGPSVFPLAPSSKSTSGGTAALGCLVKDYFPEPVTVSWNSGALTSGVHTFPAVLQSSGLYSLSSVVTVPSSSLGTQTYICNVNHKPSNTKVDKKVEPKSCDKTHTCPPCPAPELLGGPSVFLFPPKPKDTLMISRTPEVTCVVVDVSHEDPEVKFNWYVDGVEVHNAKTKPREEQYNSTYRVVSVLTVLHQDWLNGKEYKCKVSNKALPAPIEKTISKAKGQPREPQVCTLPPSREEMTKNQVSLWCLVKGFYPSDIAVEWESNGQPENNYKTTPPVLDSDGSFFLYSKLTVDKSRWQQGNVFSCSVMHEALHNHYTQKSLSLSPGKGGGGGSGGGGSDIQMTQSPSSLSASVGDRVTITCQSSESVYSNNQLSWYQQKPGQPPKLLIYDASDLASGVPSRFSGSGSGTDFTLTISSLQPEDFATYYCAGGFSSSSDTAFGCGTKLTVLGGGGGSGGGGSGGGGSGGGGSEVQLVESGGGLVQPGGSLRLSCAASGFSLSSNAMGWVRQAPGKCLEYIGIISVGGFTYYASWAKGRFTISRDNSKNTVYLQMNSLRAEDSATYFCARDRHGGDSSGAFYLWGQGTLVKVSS
light: DIQMTQSPSSLSASVGDRVTITCQASQSIGTYLAWYQQKPGKPPKLLIYRGGILASGVPSRFSGSGSGTDFTLTISSLQPEDFATYYCQSNFYSDSTTIGPNAFGQGTKVEIKRTVAAPSVFIFPPSDEQLKSGTASVVCLLNNFYPREAKVQWKVDNALQSGNSQESVTEQDSKDSTYSLSSTLTLSKADYEKHKVYACEVTHQGLSSPVTKSFNRGEC
B3: PRO4245 (scFv)
scFv: DIQMTQSPSSLSASVGDRVTITCQASQSIGTYLAWYQQKPGKPPKLLIYRGGILASGVPSRFSGSGSGTDFTLTISSLQPEDFATYYCQSNFYSDSTTIGPNAFGTGTKVTVLGGGGGSGGGGSGGGGSGGGGSQQLVESGGGLVQPGGSLRLSCAASGFSFNSDYWIYWVRQAPGKGLEWIASIYGGSSGNTQYASWAQGRFTISKDNSKNTVYLQMNSLRAEDSAVYFCARGYVDYGGATDLWGQGTLVKVSS
notes: anti-PDL1 scFv
B4: PRO3703 (scFv)
scFv: DVQMTQSPSSLSASVGDRVTITCQASQSISSWVSWYQQKPGKPPKLLIYRGGYLESGVPSRFSASGSGTDFTLTISSLQPEDFATYYCQSTDSSTYGGAFGCGTKVTVLGGGGGSGGGGSGGGGSGGGGSQQVVESGGGLVQPGGSLRLSCAVSGIDLNSYAMTWVRQAPGKCLEWIGYIGSASSTYYASWASGRFTISKDNSKNTVYLQMNSLRAEDSAVYFCARGSTYINIWGQGTLVKVSS
notes: anti-CD47 scFv; also called 70-26-B04-sc03
B5: PRO3891 (scFv)
scFv: DIQMTQSPSSLSASVGDRVTITCQASQSINDYLAWYQQKPGKAPKLLIYKGGTLASGVPSRFSGSGSGTDFTLTISSLQPEDFATYYCQQGYIITDIDNVFGTGTKVTVLGGGGGSGGGGSGGGGSGGGGSQVQLQESGPGLVKPSETLSLTCKASGFSFSSGYDMCWVRQPPGKGLEWIACVVAGSVDITYYASWAKGRVTISKDSSKNQVSLKLSSVTAADSAVYYCARKDAYSDAFNLWGQGTLVKVSS
notes: anti-PDL1 scFv
B6: PRO2230 (scFv)
scFv: DIQMTQSPASLSASVGDRVTITCQASQSIGTYLAWYQQKPGKPPKLLIYRAFILASGVPSRFSGSGSGTDFTLTISSLQPEDFATYYCQSNFYSDSTTIGPNAFGTGTKVTVLGGGGGSGGGGSGGGGSGGGGSEVQLVESGGGLVQPGGSLRLSCAASGFSFNSDYWIYWVRQAPGKGLEWIASIYGGSSGNTQYASWAQGRFTISRDNSKNTVYLQMNSLRAEDTAVYFCARGYVDYGGATDLWGQGTLVTVSS
notes: anti-PDL1 scFv; also called 37-20-B03-sc09.1
B7: PRO4687 (antibody, human IgG1, kappa)
chain: DVQMTQSPSSLSASVGDRVTITCQASQSISSWVSWYQQKPGKPPKLLIYRGGYLESGVPSRFSASGSGTDFTLTISSLQPEDFATYYCQSTDSSTYGGAFGCGTKVTVLGGGGGSGGGGSGGGGSGGGGSQQVVESGGGLVQPGGSLRLSCAVSGIDLNSYAMTWVRQAPGKCLEWIGYIGSASSTYYASWASGRFTISKDNSKNTVYLQMNSLRAEDSAVYFCARGSTYINIWGQGTLVKVSSEPKSSDKTHTCPPCPAPELLGGPSVFLFPPKPKDTLMISRTPEVTCVVVDVSHEDPEVKFNWYVDGVEVHNAKTKPREEQYNSTYRVVSVLTVLHQDWLNGKEYKCKVSNKALPAPIEKTISKAKGQPREPQVYTLPPCREEMTKNQVSLSCAVKGFYPSDIAVEWESNGQPENNYKTTPPVLDSDGSFFLVSKLTVDKSRWQQGNVFSCSVMHEALHNHYTQKSLSLSPGKGGGGSGGGGSDVQMTQSPSSLSASVGDRVTITCQASQSIGSNLAWYQQKPGKPPKLLIYKGGTLESGVPSRFSGSGSGTDFTLTISSLQPEDFATYYCQSTAGSSRSGNYGYVFGCGTKVTVLGGGGGSGGGGSGGGGSGGGGSQQLVESGGGLVQPGGSLRLSCAASGFSFTNNYYMCWVRQAPGKCLEWIACMLVGAWGNTYYASWANGRFTISKDNSKNTVYLQMNSLRAEDSAVYFCARARDYTWTLGGDPETSGFNLWGQGTLVKVSS
heavy: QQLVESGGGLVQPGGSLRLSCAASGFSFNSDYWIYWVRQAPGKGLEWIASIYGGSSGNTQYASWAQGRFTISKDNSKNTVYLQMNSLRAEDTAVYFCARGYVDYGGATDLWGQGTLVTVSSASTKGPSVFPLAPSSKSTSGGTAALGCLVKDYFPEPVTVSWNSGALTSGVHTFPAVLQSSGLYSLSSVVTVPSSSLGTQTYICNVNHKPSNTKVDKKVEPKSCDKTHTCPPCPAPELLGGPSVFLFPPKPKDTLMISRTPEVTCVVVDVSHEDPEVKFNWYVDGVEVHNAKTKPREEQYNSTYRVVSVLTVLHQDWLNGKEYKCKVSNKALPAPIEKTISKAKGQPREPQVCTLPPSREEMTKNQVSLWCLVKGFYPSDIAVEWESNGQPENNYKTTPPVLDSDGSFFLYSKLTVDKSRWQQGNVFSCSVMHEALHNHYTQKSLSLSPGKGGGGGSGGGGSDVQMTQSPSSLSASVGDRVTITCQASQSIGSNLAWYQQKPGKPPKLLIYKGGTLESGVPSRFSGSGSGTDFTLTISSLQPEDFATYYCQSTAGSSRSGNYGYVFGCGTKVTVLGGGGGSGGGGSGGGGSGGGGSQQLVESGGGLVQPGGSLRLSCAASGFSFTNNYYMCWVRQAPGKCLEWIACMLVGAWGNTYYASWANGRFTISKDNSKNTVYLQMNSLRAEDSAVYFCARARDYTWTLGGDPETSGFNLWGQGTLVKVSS
light: B2 light
notes: trispecific anti-PDL1 x CD47 x LILRB2; PDL1-BD (37-20-B03-sc18) as Fab

How the values were obtained:
[1] = molecular target: T1, recombinant human CD47 (human, UniProt Q08722 19-139, limits assumed); assay: SPR, antigen immobilised, antibody as analyte
[2] = molecular target: T2, recombinant human PDL1 (human, UniProt Q9NZQ7 19-238, limits assumed); assay: SPR, antigen immobilised, antibody as analyte
T2 construct: SPR antigen; also called CD274; B7-H1

[3] = molecular target: T3, human CD47 on the cell surface (human, UniProt Q08722 19-323); assay: cell-based or functional assay
[4] = molecular target: T4, human PD-L1 on the cell surface (human, UniProt Q9NZQ7 19-290); assay: cell-based or functional assay
[5] = molecular target: T3, human CD47 on the cell surface; assay: cell-based or functional assay; remark: listed apart in the source
[6] = molecular target: T5, recombinant cynomolgus PDL1 (cynomolgus monkey, UniProt G7PSE7 19-238); assay: SPR
T5 construct: also called cynom; PDL1
T5 sequence (G7PSE7 entry or part of it): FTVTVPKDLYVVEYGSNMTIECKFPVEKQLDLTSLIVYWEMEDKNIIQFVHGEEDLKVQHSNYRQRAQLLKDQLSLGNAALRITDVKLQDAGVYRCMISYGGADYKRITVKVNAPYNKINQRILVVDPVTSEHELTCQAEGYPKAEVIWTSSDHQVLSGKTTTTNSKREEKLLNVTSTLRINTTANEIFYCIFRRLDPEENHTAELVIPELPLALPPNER

[7] = molecular target: T4, human PD-L1 on the cell surface; assay: cell-based or functional assay; remark: listed apart in the source
[8] = molecular target: T2, recombinant human PDL1; assay: SPR
[9] = molecular target: T1, recombinant human CD47; assay: SPR, CD47 immobilised, scFv as analyte, 1:1 Langmuir
[10] = molecular target: T6, human LILRB2 on the cell surface (human, UniProt Q8N423 22-597); assay: cell-based or functional assay
T6 sequence (Q8N423 22-597): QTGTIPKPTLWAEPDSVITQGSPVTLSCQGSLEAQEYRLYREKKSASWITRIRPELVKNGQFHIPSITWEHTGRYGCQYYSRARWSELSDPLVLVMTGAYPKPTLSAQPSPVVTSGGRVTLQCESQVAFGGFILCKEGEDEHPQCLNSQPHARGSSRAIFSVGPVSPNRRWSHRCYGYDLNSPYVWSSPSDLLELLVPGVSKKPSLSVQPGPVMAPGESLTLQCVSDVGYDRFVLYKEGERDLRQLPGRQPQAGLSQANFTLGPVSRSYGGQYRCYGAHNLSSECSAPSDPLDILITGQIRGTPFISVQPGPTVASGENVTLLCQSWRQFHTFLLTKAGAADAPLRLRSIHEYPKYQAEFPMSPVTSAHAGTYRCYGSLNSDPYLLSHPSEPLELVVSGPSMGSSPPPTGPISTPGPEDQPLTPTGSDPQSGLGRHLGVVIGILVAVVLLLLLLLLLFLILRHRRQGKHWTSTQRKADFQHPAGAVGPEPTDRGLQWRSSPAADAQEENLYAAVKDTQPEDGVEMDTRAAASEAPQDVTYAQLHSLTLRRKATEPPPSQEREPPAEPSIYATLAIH

[11] = molecular target: T7, recombinant human LILRB2 (human, UniProt Q8N423 22-460, limits assumed); assay: SPR, antibody captured by anti-framework IgG, antigen as analyte (without avidity)
T7 construct: also called ILT4
T7 sequence (Q8N423 22-460 limits assumed): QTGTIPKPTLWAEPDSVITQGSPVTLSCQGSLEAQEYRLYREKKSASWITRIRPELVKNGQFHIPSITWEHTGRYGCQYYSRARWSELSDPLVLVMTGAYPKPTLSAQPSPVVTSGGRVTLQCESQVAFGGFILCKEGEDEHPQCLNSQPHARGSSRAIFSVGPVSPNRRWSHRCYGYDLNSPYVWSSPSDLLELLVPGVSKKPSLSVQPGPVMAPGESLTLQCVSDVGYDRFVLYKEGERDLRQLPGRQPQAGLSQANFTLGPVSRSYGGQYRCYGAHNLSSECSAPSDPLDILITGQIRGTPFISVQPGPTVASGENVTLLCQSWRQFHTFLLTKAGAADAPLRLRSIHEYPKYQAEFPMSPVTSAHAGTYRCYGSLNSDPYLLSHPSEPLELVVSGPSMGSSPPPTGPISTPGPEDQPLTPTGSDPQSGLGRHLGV

[12] = molecular target: T6, human LILRB2 on the cell surface; assay: cell-based or functional assay; remark: listed apart in the source

Row | Binder | CD47 driven EC50 [nM], phagocytosis of H292 cells [3] [nM] | PD-L1 driven EC50 [nM], phagocytosis of H292 cells [4] [nM] | Kd [6] [nM] | koff [6] [s⁻¹] | kon [6] [M⁻¹ s⁻¹] | PDL1/PD-1 EC50 [nM], NFAT reporter gene assay [7] [nM] | PDL1/PD-1 Max. inhibition (rel. to avelumab) [%] [7] [%] | Kd [8] [nM] | koff [8] [s⁻¹] | kon [8] [M⁻¹ s⁻¹] | also measured
1 | B1 | 54.3 | 0.13 | – | – | – | – | – | – | – | – | Kd [1]: 56.6 nM; koff [1]: 0.0249 s⁻¹; kon [1]: 439000 M⁻¹ s⁻¹; Kd [2]: 0.0105 nM; koff [2]: 2.13e-05 s⁻¹; kon [2]: 2.02e+06 M⁻¹ s⁻¹; CD47 driven EC50 [nM], phagocytosis of A375 cells [5]: 76.9 nM
2 | B2 | 13.5 | 0.08 | – | – | – | – | – | – | – | – | –
3 | B3 | – | – | 0.032 | 0.00014 | 4.6e+06 | 1.81 | 106 | 0.036 | 0.00014 | 4e+06 | –
4 | B4 | – | – | – | – | – | – | – | – | – | – | Kd [9]: 11.9 nM; koff [9]: 0.029 s⁻¹; kon [9]: 2.44e+06 M⁻¹ s⁻¹
5 | B5 | – | – | 0.0034 | 2.9e-05 | 5.9e+06 | 1.36 | 94.6 | 0.0041 | 3.9e-05 | 6e+06 | –
6 | B6 | – | – | 0.012 | 8.4e-05 | 7e+06 | 0.93 | 91.8 | 0.015 | 9.3e-05 | 6.3e+06 | –
7 | B7 | 8.62 | 0.043 | – | – | – | – | – | – | – | – | IL-1β EC50 [nM], LPS-driven cytokine secretion [10]: 0.205 nM; IL-6 EC50 [nM], LPS-driven cytokine secretion [10]: 0.097 nM; TNF-α EC50 [nM], LPS-driven cytokine secretion [10]: 0.175 nM; Kd [1]: 25.2 nM; koff [1]: 0.0204 s⁻¹; kon [1]: 811000 M⁻¹ s⁻¹; Kd [2]: 0.0885 nM; koff [2]: 0.000116 s⁻¹; kon [2]: 1.31e+06 M⁻¹ s⁻¹; Kd [11]: 0.36 nM; koff [11]: 9.3e-05 s⁻¹; kon [11]: 260000 M⁻¹ s⁻¹; CD86 EC50 [nM], re-polarization of M2 macrophages [12]: 0.078 nM; CD163 EC50 [nM], re-polarization of M2 macrophages [12]: 0.07 nM; CD206 EC50 [nM], re-polarization of M2 macrophages [12]: 0.124 nM
